Columns and labels:
Test in all cases: cell_activity
[1] = system: btPRLR 9.6 TALEN right (synthetic); conditions: pair inactive; one RVD printed as N, read as NN
[2] = system: btPRLR 9.3 TALEN right (synthetic); conditions: pair inactive, bovine fibroblasts
[3] = system: btPRLR 9.2 TALEN left (synthetic); conditions: pair inactive, bovine fibroblasts
[4] = system: btPRLR 9.2 TALEN right (synthetic); conditions: pair inactive, bovine fibroblasts
[5] = system: btPRLR 9.14 TALEN right (synthetic); conditions: pair inactive, bovine fibroblasts
[6] = system: btPRLR 9.8 TALEN right (synthetic); conditions: pair value, bovine fibroblasts; also active in zygotes (Table VI)
[7] = system: btPRLR 9.5 TALEN right (synthetic); conditions: pair value, bovine fibroblasts
[8] = system: btPRLR 9.4 TALEN left (synthetic); conditions: pair inactive, but same left RVDs active in 9.5
[9] = system: btPRLR 9.7 TALEN left (synthetic); conditions: pair inactive, bovine fibroblasts
[10] = system: btPRLR 9.8 TALEN left (synthetic); conditions: pair value, bovine fibroblasts; also active in zygotes (Table VI)
[11] = system: btPRLR 9.1 TALEN right (synthetic); conditions: pair value, bovine fibroblasts, TALEN mRNA
[12] = system: btPRLR 9.12 TALEN right (synthetic); conditions: pair value, bovine fibroblasts; also active in zygotes (Table VI)
[13] = system: btPRLR 9.10 TALEN right (synthetic); conditions: pair inactive, bovine fibroblasts
[14] = system: btPRLR 9.9 TALEN left (synthetic); conditions: pair inactive, bovine fibroblasts
[15] = system: btPRLR 9.7 TALEN right (synthetic); conditions: pair inactive; printed RVDs read the sense strand
[16] = system: btPRLR 9.9 TALEN right (synthetic); conditions: pair inactive, bovine fibroblasts
[17] = system: btPRLR 9.1 TALEN left (synthetic); conditions: pair value, bovine fibroblasts, TALEN mRNA
[18] = system: btPRLR 9.3 TALEN left (synthetic); conditions: pair inactive, bovine fibroblasts
[19] = system: btPRLR 9.14 TALEN left (synthetic); conditions: pair inactive, bovine fibroblasts
[20] = system: btPRLR 9.10 TALEN left (synthetic); conditions: pair inactive, bovine fibroblasts
[21] = system: btPRLR 9.6 TALEN left (synthetic); conditions: pair inactive, bovine fibroblasts
[22] = system: btPRLR 9.11 TALEN right (synthetic); conditions: pair inactive, bovine fibroblasts
[23] = system: btPRLR 9.11 TALEN left (synthetic); conditions: pair inactive, bovine fibroblasts
[24] = system: btPRLR 9.13 TALEN right (synthetic); conditions: pair value, bovine fibroblasts
[25] = system: btPRLR 9.12 TALEN left (synthetic); conditions: pair value, bovine fibroblasts; also active in zygotes (Table VI)
[26] = system: btPRLR 9.13 TALEN left (synthetic); conditions: pair value; printed RVDs lack one HD relative to target
[27] = system: btPRLR 9.4 TALEN right (synthetic); conditions: pair inactive, bovine fibroblasts
[28] = system: btPRLR 9.5 TALEN left (synthetic); conditions: pair value, bovine fibroblasts

“GGCCGGCACCACAGCCACTTCGCTGGACCAAACAGACCAACATGCTTT (double strand) [9.6 right site]” was tested, and the activity [1] was 0 % Cel-I.

In the case of “GGCCGGCACCACAGCCACTTCGCTGGACCAAACAGACCAACATGCTTTAA (double strand) [9.3 right site]”, the activity [2] is reported as 0 % Cel-I.

“GCTTTAAAAGCCTCAAAAACCATTGAAACTGGCAGGGAAGGAAAGGC (double strand) [9.2 left site]” gave an activity [3] of 0 % Cel-I.

“GCTTTAAAAGCCTCAAAAACCATTGAAACTGGCAGGGAAGGAAAGGC (double strand) [9.2 right site]” showed an activity [4] of 0 % Cel-I.

For “CAAAAACCATTGAAACTGGCAGGGAAGGAAAGGCAACCAAGCAGAGGGAGTC (double strand) [9.14 right site]”, the activity [5] was 0 % Cel-I.

Sequence “GTGGCCACGACCCCAAGACAAAACCCCCTTGATCTCTGCTAAACCCTTGG (double strand) [9.8 right site]” has an activity [6] of 10.1 % Cel-I.

“GCTTTAAAAGCCTCAAAAACCATTGAAACTGGCAGGGAAGGAAAGGCAACCA (double strand) [9.5 right site]” gave an activity [7] of 13.9 % Cel-I.

Sequence “GCTTTAAAAGCCTCAAAAACCATTGAAACTGGCAGGGAAGGAAAGGCAACCA (double strand) [9.4 left site]” has an activity [8] of 0 % Cel-I.

“CAGACCAACATGCTTTAAAAGCCTCAAAAACCATTGAAACTGGCAG (double strand) [9.7 left site]” was tested, and the activity [9] was 0 % Cel-I.

Sequence “GTGGCCACGACCCCAAGACAAAACCCCCTTGATCTCTGCTAAACCCTTGG (double strand) [9.8 left site]” has an activity [10] of 10.1 % Cel-I.

Work on “GGCCGGCACCACAGCCACTTCGCTGGACCAAACAGACCAACATGCTTTA (double strand) [9.1 right site]” yielded an activity [11] of 20.9 % Cel-I.

Sequence “TCGCTGGACCAAACAGACCAACATGCTTTAAAAGCCTCAAAAACCATTG (double strand) [9.12 right site]” has an activity [12] of 15.9 % Cel-I.

In the case of “GGCCACGACCCCAAGACAAAACCCCCTTGATCTCTGCTAAACCCTTGGAAT (double strand) [9.10 right site]”, the activity [13] is reported as 0 % Cel-I.

Sequence “CAGAAGGCTGCAGTTCCAAGCCTGACCAAGACACGGTGTGGCCACG (double strand) [9.9 left site]” has an activity [14] of 0 % Cel-I.

In the case of “CAGACCAACATGCTTTAAAAGCCTCAAAAACCATTGAAACTGGCAG (double strand) [9.7 right site]”, the activity [15] is reported as 0 % Cel-I.

For “CAGAAGGCTGCAGTTCCAAGCCTGACCAAGACACGGTGTGGCCACG (double strand) [9.9 right site]”, the activity [16] was 0 % Cel-I.

For “GGCCGGCACCACAGCCACTTCGCTGGACCAAACAGACCAACATGCTTTA (double strand) [9.1 left site]”, the activity [17] was 20.9 % Cel-I.

In the case of “GGCCGGCACCACAGCCACTTCGCTGGACCAAACAGACCAACATGCTTTAA (double strand) [9.3 left site]”, the activity [18] is reported as 0 % Cel-I.

With “CAAAAACCATTGAAACTGGCAGGGAAGGAAAGGCAACCAAGCAGAGGGAGTC (double strand) [9.14 left site]” the activity [19] was 0 % Cel-I.

For “GGCCACGACCCCAAGACAAAACCCCCTTGATCTCTGCTAAACCCTTGGAAT (double strand) [9.10 left site]”, the activity [20] was 0 % Cel-I.

“GGCCGGCACCACAGCCACTTCGCTGGACCAAACAGACCAACATGCTTT (double strand) [9.6 left site]” gave an activity [21] of 0 % Cel-I.

“CAAAAACCATTGAAACTGGCAGGGAAGGAAAGGCAACCAAGCAGAGGGAGTC (double strand) [9.11 right site]” gave an activity [22] of 0 % Cel-I.

For “CAAAAACCATTGAAACTGGCAGGGAAGGAAAGGCAACCAAGCAGAGGGAGTC (double strand) [9.11 left site]”, the activity [23] was 0 % Cel-I.

In the case of “AAAAGCCTCAAAAACCATTGAAACTGGCAGGGAAGGAAAGGCAACCAAGCAG (double strand) [9.13 right site]”, the activity [24] is reported as 6.8 % Cel-I.

“TCGCTGGACCAAACAGACCAACATGCTTTAAAAGCCTCAAAAACCATTG (double strand) [9.12 left site]” showed an activity [25] of 15.9 % Cel-I.

“AAAAGCCTCAAAAACCATTGAAACTGGCAGGGAAGGAAAGGCAACCAAGCAG (double strand) [9.13 left site]” was tested, and the activity [26] was 6.8 % Cel-I.

For “GCTTTAAAAGCCTCAAAAACCATTGAAACTGGCAGGGAAGGAAAGGCAACCA (double strand) [9.4 right site]”, the activity [27] was 0 % Cel-I.

Work on “GCTTTAAAAGCCTCAAAAACCATTGAAACTGGCAGGGAAGGAAAGGCAACCA (double strand) [9.5 left site]” yielded an activity [28] of 13.9 % Cel-I.

Reference: patent publication US20170079251
